According to publication PMC9190012, “Heparin activation of protein Z-dependent protease inhibitor (ZPI) allosterically blocks protein Z activation through an extended heparin-binding site” (The Journal of Biological Chemistry, 2022):
Numbering of substitutions follows the chain as printed. In names and notes the source's numbering stands. Values belong to the molecule of their own block, whether it stands above or below them.

Legend:
K239C-NBD-ZPI = molecular target: T1, K239C-NBD-ZPI (Homo sapiens, UniProt Q9UK55, C190A/C285S/K260C); assay: Fluorescence emission spectra of K239C-NBD-ZPI with PZ and heparin; type: binding; details: saturating PZ added to NBD-labeled ZPI
T1 construct: made in house; host or cells: Escherichia coli
T1 sequence (Q9UK55 22-444 C190A/K260C/C285S): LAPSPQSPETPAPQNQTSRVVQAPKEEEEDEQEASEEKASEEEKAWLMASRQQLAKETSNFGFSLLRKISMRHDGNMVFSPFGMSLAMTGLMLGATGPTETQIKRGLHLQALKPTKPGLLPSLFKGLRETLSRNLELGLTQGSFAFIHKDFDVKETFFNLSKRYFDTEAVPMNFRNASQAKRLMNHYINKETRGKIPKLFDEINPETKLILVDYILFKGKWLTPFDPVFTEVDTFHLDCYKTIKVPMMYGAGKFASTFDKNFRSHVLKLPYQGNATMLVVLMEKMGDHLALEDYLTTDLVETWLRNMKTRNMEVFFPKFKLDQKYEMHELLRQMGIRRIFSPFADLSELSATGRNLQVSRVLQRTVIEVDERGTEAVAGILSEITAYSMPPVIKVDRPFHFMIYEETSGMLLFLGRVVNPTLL
Experimental: Fluorescence emission spectra of NBD-ZPI (50–100 nM) were measured in the absence or the presence of PZ and heparin in 20 mM Tris buffer (pH 7.4), 0.2 M NaCl, 0.1% PEG 8000, 1 mg/ml bovine serum albumin (BSA), and 2.5 mM CaCl2 with an SLM 8000 spectrofluorometer with excitation at 480 nm over the emission range of 500 to 600 nm. Intrinsic protein fluorescence of WT and mutant ZPIs (200 nM to 1 μM) was measured in the same buffer without BSA, with excitation at 280 nm over the emission range of 300 to 400 nm. Emission was monitored in 5-nm steps with 5 to 10 s of integrations per step. Spectra were obtained in triplicate and averaged. Buffer, buffer plus PZ, or buffer plus heparin background spectra were subtracted, and dilution corrections were made for added PZ or heparin (<10%).

NBD-ZPI–PZ interactions = molecular target: T2, NBD-ZPI–PZ interactions (Homo sapiens, UniProt Q9UK55, C190A/C285S/K260C); assay: Titrations of NBD-ZPI with PZ in absence and presence of fixed levels of heparin; type: binding; details: no heparin; 50 nM NBD-ZPI, 0.2 M NaCl buffer; read-out: ZPI–PZ KD,PZapp
T2 construct: made in house; host or cells: Escherichia coli
T2 sequence (Q9UK55 22-444 C190A/K260C/C285S): T1 sequence (Q9UK55 22-444 C190A/K260C/C285S)
Experimental: The effect of heparin on PZ binding to ZPI was measured by titrations of 50 nM NBD-ZPI with PZ in the absence and presence of different fixed levels of heparins of various lengths in the higher ionic strength buffer used for emission spectra. Titrations were monitored from the enhancement of NBD-ZPI fluorescence that signals PZ binding. These titrations were fit by the quadratic binding equation, ΔFobs/F0=ΔFmax/F0×[ZPI]0+[PZ]0+KD,PZapp−([ZPI]0+[PZ]0+KD,PZapp)^2−4×[ZPI]0×[PZ]0/2×[ZPI]0 where ΔFobs/Fo and ΔFmax/Fo are the observed and maximal fluorescence changes after addition of PZ expressed relative to the initial free NBD-ZPI fluorescence, respectively, and KD,PZapp = KD,PZ × (1 + [H]o/KD,H) is the apparent dissociation constant for the ZPI–PZ interaction in the absence or presence of heparin. The fitted parameters were KD,PZapp and ΔFmax/Fo.

FXa [1] = molecular target: T3, FXa (Homo sapiens, UniProt P00742); assay: H50 heparin-accelerated ZPI–FXa reactions: kinetics and stoichiometry of inhibition; type: biochemical; details: for SI / ka,app × SI / ka,app × SI relative to WT: 1 μM H50; for ka,app: 1 μM H50, 2.5 mM CaCl2, pH 7.4, 25 °C; for H50 rate enhancement: ratio of heparin-accelerated to unaccelerated ka,app × SI
T3 construct: purchased Enzyme Research Laboratories
T3 sequence (P00742 235-488 limits assumed): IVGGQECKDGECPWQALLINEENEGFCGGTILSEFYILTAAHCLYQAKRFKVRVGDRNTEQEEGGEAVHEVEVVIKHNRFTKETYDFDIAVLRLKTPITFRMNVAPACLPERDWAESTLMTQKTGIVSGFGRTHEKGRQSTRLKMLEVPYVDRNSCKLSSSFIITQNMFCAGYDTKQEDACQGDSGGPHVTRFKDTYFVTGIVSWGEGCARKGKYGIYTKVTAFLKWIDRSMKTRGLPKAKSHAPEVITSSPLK
T3 sequence (P00742 41-179 limits assumed): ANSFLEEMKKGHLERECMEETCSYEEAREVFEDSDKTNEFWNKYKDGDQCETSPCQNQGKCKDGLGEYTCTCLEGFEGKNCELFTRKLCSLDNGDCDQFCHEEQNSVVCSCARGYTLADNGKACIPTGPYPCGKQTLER
Experimental: Heparin accelerating effects on the kinetics of ZPI–FXa reactions were evaluated as a function of heparin concentration under pseudo–first-order conditions (i.e., with a large molar excess of inhibitor over protease) by incubating reaction mixtures of 100 μl containing 70 nM ZPI and ∼0.5 nM FXa in the absence or presence of varying levels of H50 ranging from 10^−9 to 10^−4 M in 20 mM Tris buffer (pH 7.4), 0.1 M NaCl, 0.1% PEG 8000, 0.1 mg/ml BSA, and 2.5 mM CaCl2 at 25 °C for reaction times of 2 to 5 min. Reactions were quenched by adding 1 ml of 50 μM Pefafluor FXa substrate (Centerchem, Inc) containing 50 μg/ml polybrene and 5 mM EDTA. The initial linear rate of substrate hydrolysis was monitored at an excitation wavelength of 380 nm and an emission wavelength of 440 nm. The observed pseudo–first-order rate constant for reactions (kobs) was calculated from the equation, kobs=In([vo-v∞]/[vt-v∞])/t
where vt and v∞ are the initial velocities of protease hydrolysis of the substrate after reaction with ZPI for the fixed reaction time and after reaching the reaction end point, respectively, vo is the velocity measured in control reactions without ZPI, and t is the fixed reaction time. The dependence of kobs on heparin concentration was computer fit by nonlinear least squares analysis by the ternary complex bridging model equation ([10]).
(§1) Apparent second-order rate constants for unaccelerated and H50-accelerated ZPI–FXa reactions were measured in the absence and presence of the optimal H50 concentration under pseudo–first-order conditions by analyzing full ZPI–FXa reaction progress curves over the ZPI concentration range of 10 to 900 nM with ∼0.5 nM FXa. Full reaction progress curves were also measured for ZPI–FXa reactions in the presence of PZ equimolar with ZPI, 25 μM lipid, and 5 mM CaCl2, as a function of the ZPI concentration in the range of 10 to 40 nM. Identical reaction mixtures were quenched at varying reaction times with substrate, and the time course of protease inactivation was measured from the decrease in initial rates of substrate hydrolysis. The first-order rate of decrease in protease activity with time was computer fit by a single exponential decay function with a nonzero end point and kobs obtained from the fitted exponential decay constant. Apparent second-order association rate constants (ka,app) were obtained from the slopes of linear plots of kobs versus the ZPI concentration according to the equation, kobs=kd+ka,app × [ZPI]0
(§2) In which kd represents the rate constant for ZPI–FXa complex dissociation and [ZPI]o is the total ZPI concentration. kd was fixed at the experimentally determined value of 10^−4 s^−1 for WT and ZPI mutants as described ([18]).
Fixed concentrations of FXa (50–100 nM FXa) were reacted with increasing concentrations of ZPI, ranging from a approximately threefold to sevenfold molar excess, in the absence of cofactors or in the presence of either 1 μM H50 or PZ equimolar with ZPI, 25 μM lipid, and 5 mM CaCl2, in kinetics buffer at 25 °C in reaction volumes of 50 μl. After allowing sufficient time to reach a reaction end point, based on measured second-order associate rate constants (∼5–30 min), remaining proteolytic activity was measured by reacting an aliquot (5–20 μl) of the reaction mixtures with 1 ml of 100 μM Spectrozyme fXa (American Diagnostica) containing 50 μg/ml Polybrene and 5 mM EDTA and monitoring the rate of absorbance change at 405 nm. The apparent SI was determined from the fitted abscissa intercept of a linear plot of residual protease activity against the molar ratio of inhibitor to protease ([18]). Because the ZPI–PZ complex dissociates to a small extent over the reaction time, apparent SIs depend on the time of incubation. To correct for such complex dissociation, apparent SIs were multiplied by the factor, exp (−kd × t), where kd is the measured complex dissociation rate constant of 10^−4 s^−1 and t the fixed reaction time. […]

FXa [2] = molecular target: T3, FXa; assay: PZ-accelerated ZPI–FXa reactions: kinetics and stoichiometry of inhibition; type: biochemical; details: for SI / ka,app × SI / ka,app × SI relative to WT: PZ-accelerated; for ka,app: equimolar PZ, 25 μM phospholipid, 5 mM CaCl2, pH 7.4, 25 °C; for PZ enhancement: ratio of PZ-accelerated to unaccelerated ka,app × SI
Experimental: as §1, §2
(§3) Fixed concentrations of FXa (50–100 nM FXa) were reacted with increasing concentrations of ZPI, ranging from a approximately threefold to sevenfold molar excess, in the absence of cofactors or in the presence of either 1 μM H50 or PZ equimolar with ZPI, 25 μM lipid, and 5 mM CaCl2, in kinetics buffer at 25 °C in reaction volumes of 50 μl. After allowing sufficient time to reach a reaction end point, based on measured second-order associate rate constants (∼5–30 min), remaining proteolytic activity was measured by reacting an aliquot (5–20 μl) of the reaction mixtures with 1 ml of 100 μM Spectrozyme fXa (American Diagnostica) containing 50 μg/ml Polybrene and 5 mM EDTA and monitoring the rate of absorbance change at 405 nm. The apparent SI was determined from the fitted abscissa intercept of a linear plot of residual protease activity against the molar ratio of inhibitor to protease ([18]). Because the ZPI–PZ complex dissociates to a small extent over the reaction time, apparent SIs depend on the time of incubation. To correct for such complex dissociation, apparent SIs were multiplied by the factor, exp (−kd × t), where kd is the measured complex dissociation rate constant of 10^−4 s^−1 and t the fixed reaction time. Simulations verified the validity of this correction for small extents of dissociation. Reported SIs are average values of at least two independent measurements at different reaction times.

FXa [3] = molecular target: T3, FXa; assay: Unaccelerated ZPI–FXa reactions: kinetics and stoichiometry of inhibition; type: biochemical; details: for ka,app: absence of PZ, 2.5 mM CaCl2, pH 7.4, 25 °C
Experimental: as §1, §2, §3

- enhancement in NBD fluorescence (K239C-NBD-ZPI): ~300%
- Kd (NBD-ZPI–PZ interactions): 9 ± 1.2 nM
Molecule: PZ: human plasma protein Z, cofactor of ZPI, from Enzyme Research Laboratories

- SI (FXa [1]): 4.6 ± 0.1 moles ZPI/mole FXa
- ka,app × SI (FXa [1]): 3.9 ± 0.2 × 10^6 M^−1 s^−1
- ka,app × SI relative to WT (FXa [1]): (3.2)
- ka,app (FXa [1]): 8.3 ± 0.4 × 10^5 M^−1 s^−1
- H50 rate enhancement (FXa [1]): 150 fold
- SI (FXa [2]): 2.2 ± 0.1 moles ZPI/mole FXa
- ka,app × SI (FXa [2]): 1.8 ± 0.3 × 10^7 M^−1 s^−1
- ka,app × SI relative to WT (FXa [2]): (0.41)
- ka,app (FXa [2]): 8.4 ± 1.2 × 10^6 M^−1 s^−1
- PZ enhancement (FXa [2]): 692
- SI (FXa [3]): 3.6 ± 0.3 moles ZPI/mole FXa
- ka,app × SI (FXa [3]): 2.6 ± 0.2 × 10^4 M^−1 s^−1
- ka,app × SI relative to WT (FXa [3]): (1.6)
- ka,app (FXa [3]): 7.3 ± 0.1 × 10^3 M^−1 s^−1
B1: D298K/E301R/T302K/T309K: ZPI mutant with the helix H heparin-binding site of PCI grafted onto homologous ZPI residues (protein, UniProt Q9UK55 22-444, looked up, variant D298K E301R T302K T309K)
Protein Z-dependent protease …: T1 sequence (Q9UK55 22-444 C190A/K260C/C285S) with A169C, C239K, S264C, D298K, E301R, T302K, T309K

More lines, now with the values behind:

B2: R263A: ZPI helix H site mutant (protein, UniProt Q9UK55 22-444, looked up, variant R263A)
Protein Z-dependent protease …: T1 sequence (Q9UK55 22-444 C190A/K260C/C285S) with A169C, C239K, R263A, S264C
- SI (FXa [1]): 2.8 ± 0.1 moles ZPI/mole FXa
- ka,app × SI (FXa [1]): 3.5 ± 0.4 × 10^5 M^−1 s^−1
- ka,app × SI relative to WT (FXa [1]): (0.29)
- ka,app (FXa [1]): 1.3 ± 0.1 × 10^5 M^−1 s^−1
- H50 rate enhancement (FXa [1]): 55 fold
- SI (FXa [2]): 3.1 ± 0.1 moles ZPI/mole FXa
- ka,app × SI (FXa [2]): 2.1 ± 0.2 x 10^7 M^−1 s^−1
- ka,app × SI relative to WT (FXa [2]): (0.48)
- ka,app (FXa [2]): 6.9 ± 0.5 × 10^6 M^−1 s^−1
- PZ enhancement (FXa [2]): 3359
- SI (FXa [3]): 2.7 ± 0.5 moles ZPI/mole FXa
- ka,app × SI (FXa [3]): 6.4 ± 1.3 × 10^3 M^−1 s^−1
- ka,app × SI relative to WT (FXa [3]): (0.40)
- ka,app (FXa [3]): 2.4 ± 0.1 × 10^3 M^−1 s^−1

B3: K253A: ZPI helix H site mutant (protein, UniProt Q9UK55 22-444, looked up, variant K253A)
Protein Z-dependent protease …: T1 sequence (Q9UK55 22-444 C190A/K260C/C285S) with A169C, C239K, K253A, S264C
- SI (FXa [1]): 1.5 ± 0.1 moles ZPI/mole FXa
- ka,app × SI (FXa [1]): 4.8 ± 0.7 × 10^5 M^−1 s^−1
- ka,app × SI relative to WT (FXa [1]): (0.40)
- ka,app (FXa [1]): 3.2 ± 0.2 × 10^5 M^−1 s^−1
- H50 rate enhancement (FXa [1]): 56 fold
- SI (FXa [2]): 2.4 ± 0.1 moles ZPI/mole FXa
- ka,app × SI (FXa [2]): 7.2 ± 0.1 x 10^6 M^−1 s^−1
- ka,app × SI relative to WT (FXa [2]): (0.16)
- ka,app (FXa [2]): 3.0 ± 0.2 × 10^6 M^−1 s^−1
- PZ enhancement (FXa [2]): 847
- SI (FXa [3]): 2.1 ± 0.1 moles ZPI/mole FXa
- ka,app × SI (FXa [3]): 8.5 ± 1.2 × 10^3 M^−1 s^−1
- ka,app × SI relative to WT (FXa [3]): (0.53)
- ka,app (FXa [3]): 4.1 ± 0.4 × 10^3 M^−1 s^−1
